Laboratory results reported in the RNAGym collection of RNA variant scans (doi:10.1093/molbev/msab373).

B1: Azoarcus group I ribozyme (parent)
chain: GUGCCUUGCGCCGGGAAACCACGCAAGGGAUGGUGUCAAAUUCGGCGAAACCUAAGCGCCCGCCCGGGCGUAUGGCAACGCCGAGCCAAGCUUCGGCGCCUGCGCCGAUGAAGGUGUAGAGACUAGACGGCACCCACCUAAGGCAAACGCUAUGGUGAAGGCAUAGUCCAGGGAGUGGCGAAAGUCACACAAACCGG

Variants of: B1
Assay: reverse-splicing fitness (ratio to wild type); higher = more active; in vitro selection; Mg2+ level not given
Summary of the method: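 An in vitro group I ribozyme library with randomized positions was T7-transcribed and gel-purified. In triplicate, 10 pmol RNA in EPPS pH 7.5 was reacted with 50 pmoles of a 30-nt RNA substrate for 1 h at 37 °C across several added MgCl2 levels (1–48 mM), then stopped with EDTA. Products were reverse transcribed from a substrate-complementary primer, PCR-amplified and sequenced (HiSeq 4000). Fitness is a variant's read proportion after selection over that before, normalised to wild type.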
In the case of C82A A111G A120G C150G C169U, the reverse-splicing fitness is reported as 0.00856.
For C82A A111G A120G C150G C169A, the reverse-splicing fitness was 0.00929.
C82A A111G A120G C150G C169G showed a reverse-splicing fitness of 0.00739.
C82A A111G A120U A145C C150U C169U U176G gave a reverse-splicing fitness of 0.00193.
Variant C82A A111G A120U A145C C150U C169U U176A has a reverse-splicing fitness of 0.0026.
C82A A111G A120U A145C C150U C169U U176C showed a reverse-splicing fitness of 0.0025.
For C82A A111G A120G C150G U176G, the reverse-splicing fitness was 0.00346.
With C82A A111G A120G C150G U176C the reverse-splicing fitness was 0.00974.
In the case of C82A A111G A120G C150G U176A, the reverse-splicing fitness is reported as 0.0058.
Work on C82A A111G A120U A145G C150G C169G yielded a reverse-splicing fitness of 0.00653.
With C82A A111G A120U A145G C150G C169A the reverse-splicing fitness was 0.00837.
In the case of C82A A111G A120U A145G C150G C169U, the reverse-splicing fitness is reported as 0.00766.
In the case of C82A A111G A120U A145G C150U C169U U176G, the reverse-splicing fitness is reported as 0.00242.
C82A A111G A120U A145G C150U C169U U176C gave a reverse-splicing fitness of 0.00442.
For C82A A111G A120U A145G C150U C169U U176A, the reverse-splicing fitness was 0.00523.
For C82A A111G A120U A145C U176G, the reverse-splicing fitness was 0.00284.
For C82A A111G A120U A145C U176C, the reverse-splicing fitness was 0.0111.
For C82A A111G A120U A145C U176A, the reverse-splicing fitness was 0.00841.
In the case of C82A A111G A120G A145U C150G C169A, the reverse-splicing fitness is reported as 0.00989.
C82A A111G A120G A145U C150G C169U gave a reverse-splicing fitness of 0.00867.
C82A A111G A120G A145U C150G C169G showed a reverse-splicing fitness of 0.00677.
C82A A111G A120U A145C C150G U176C showed a reverse-splicing fitness of 0.00393.
Work on C82A A111G A120U A145C C150G U176A yielded a reverse-splicing fitness of 0.00295.
C82A A111G A120U A145C C150G U176G showed a reverse-splicing fitness of 0.00262.
In the case of C82A A111G A120G A145U C150G C169A U176C, the reverse-splicing fitness is reported as 0.0101.
For C82A A111G A120G A145U C150G C169A U176A, the reverse-splicing fitness was 0.00976.
For C82A A111G A120G A145U C150G C169A U176G, the reverse-splicing fitness was 0.00526.
For C82A A111G A120U A145U C150G C169A U176C, the reverse-splicing fitness was 0.00338.
In the case of C82A A111G A120U A145U C150G C169A U176A, the reverse-splicing fitness is reported as 0.0039.
Work on C82A A111G A120U A145U C150G C169A U176G yielded a reverse-splicing fitness of 0.00276.
Variant C82A A111G A120G A145U C150G C169G U176C has a reverse-splicing fitness of 0.00461.
Work on C82A A111G A120G A145U C150G C169G U176A yielded a reverse-splicing fitness of 0.00739.
With C82A A111G A120G A145U C150G C169G U176G the reverse-splicing fitness was 0.00446.
C82A A111G A120U A145C C150U C169G U176G gave a reverse-splicing fitness of 0.00192.
For C82A A111G A120U A145C C150U C169G U176C, the reverse-splicing fitness was 0.0025.
In the case of C82A A111G A120U A145C C150U C169G U176A, the reverse-splicing fitness is reported as 0.00301.
Variant C82A A111G A120U A145U C169G U176C has a reverse-splicing fitness of 0.00235.
Work on C82A A111G A120U A145U C169G U176A yielded a reverse-splicing fitness of 0.00272.
For C82A A111G A120U A145U C169G U176G, the reverse-splicing fitness was 0.00177.
Variant C82A A111G A120U A145C C150A C169A U176A has a reverse-splicing fitness of 0.0022.
For C82A A111G A120U A145C C150A C169A U176G, the reverse-splicing fitness was 0.00214.
For C82A A111G A120U A145C C150A C169A U176C, the reverse-splicing fitness was 0.0024.
Variant C82A A111G A120U A145U C150G C169A has a reverse-splicing fitness of 0.00373.
For C82A A111G A120U A145U C150G C169U, the reverse-splicing fitness was 0.00268.
C82A A111G A120U A145U C150G C169G gave a reverse-splicing fitness of 0.00311.
Variant C82A A111G A120U A145C C150A C169A has a reverse-splicing fitness of 0.00211.
C82A A111G A120U A145C C150A C169U gave a reverse-splicing fitness of 0.00264.
C82A A111G A120U A145C C150A C169G showed a reverse-splicing fitness of 0.00279.
With C82A A111G A120U A145U C150A C169G U176G the reverse-splicing fitness was 0.0019.
C82A A111G A120U A145U C150A C169G U176A showed a reverse-splicing fitness of 0.00301.
For C82A A111G A120U A145U C150A C169G U176C, the reverse-splicing fitness was 0.00264.
With C82A A111G A120U A145U C150A C169U U176C the reverse-splicing fitness was 0.00285.
Variant C82A A111G A120U A145U C150A C169U U176G has a reverse-splicing fitness of 0.0018.
With C82A A111G A120U A145U C150A C169U U176A the reverse-splicing fitness was 0.00277.
Work on C82A A111G A120U A145C C150G C169U U176G yielded a reverse-splicing fitness of 0.00231.
With C82A A111G A120U A145C C150G C169U U176C the reverse-splicing fitness was 0.0028.
Work on C82A A111G A120U A145C C150G C169U U176A yielded a reverse-splicing fitness of 0.00268.
C82A A111G A120G C150U C169A U176G showed a reverse-splicing fitness of 0.00549.
C82A A111G A120G C150U C169A U176A gave a reverse-splicing fitness of 0.0153.
C82A A111G A120G C150U C169A U176C gave a reverse-splicing fitness of 0.0173.
C82A A111G A120U A145U C150G C169G U176C showed a reverse-splicing fitness of 0.00281.
In the case of C82A A111G A120U A145U C150G C169G U176G, the reverse-splicing fitness is reported as 0.00259.
Variant C82A A111G A120U A145U C150G C169G U176A has a reverse-splicing fitness of 0.00352.
For C82A A111G A120U A145U U176G, the reverse-splicing fitness was 0.00433.
With C82A A111G A120U A145U U176C the reverse-splicing fitness was 0.0146.
C82A A111G A120U A145U U176A gave a reverse-splicing fitness of 0.00893.
C82A A111G A120U A145C C150G C169A U176C gave a reverse-splicing fitness of 0.00205.
C82A A111G A120U A145C C150G C169A U176A gave a reverse-splicing fitness of 0.00214.
Work on C82A A111G A120U A145C C150G C169A U176G yielded a reverse-splicing fitness of 0.00179.
Variant C82A A111G A120U A145G C150A C169A U176G has a reverse-splicing fitness of 0.00291.
C82A A111G A120U A145G C150A C169A U176C gave a reverse-splicing fitness of 0.0046.
Variant C82A A111G A120U A145G C150A C169A U176A has a reverse-splicing fitness of 0.00865.
For C82A A111G A120G A145U C169U U176C, the reverse-splicing fitness was 0.0158.
In the case of C82A A111G A120G A145U C169U U176A, the reverse-splicing fitness is reported as 0.0204.
C82A A111G A120G A145U C169U U176G showed a reverse-splicing fitness of 0.00416.
Work on C82A A111G A120U A145G C150G U176G yielded a reverse-splicing fitness of 0.00403.
For C82A A111G A120U A145G C150G U176C, the reverse-splicing fitness was 0.00835.
Work on C82A A111G A120U A145G C150G U176A yielded a reverse-splicing fitness of 0.00592.
In the case of C82A A111G A120U A145G C169A U176C, the reverse-splicing fitness is reported as 0.00333.
In the case of C82A A111G A120U A145G C169A U176G, the reverse-splicing fitness is reported as 0.002.
With C82A A111G A120U A145G C169A U176A the reverse-splicing fitness was 0.0033.
C82A A111G A120U A145G C169A gave a reverse-splicing fitness of 0.00307.
Work on C82A A111G A120U A145G C169U yielded a reverse-splicing fitness of 0.00421.
